Results as given in PMC5497066.
Each block holds one substance with its values, some of them ahead of it.

How the values were obtained:
[1] = molecular target: C-terminal truncation mutant of tetradecamer GroEL, Δ526 (E. coli) (UniProt P0A6F5)
PepQ-24TMR (E. coli) [2] = molecular target: PepQ-24TMR (E. coli) (UniProt P21165); assay: single-molecule two-colour co-incidence detection; PepQ-24OG and PepQ-24TMR 1:1, denatured, refolded at 100 nM total monomer with GroEL, GroES and ATP at 23 °C, then diluted 1,000-fold to 100 pM; cross-correlation of fluorescence bursts
PepQ-24TMR (E. coli) [3] = molecular target: PepQ-24TMR (E. coli) (UniProt P21165); assay: single-molecule two-colour co-incidence detection; PepQ-24OG and PepQ-24TMR 1:1, denatured in acid-urea, spontaneous folding at 2 nM monomer in TKM buffer with 0.1 mg ml^-1 BSA, 23 °C, 10 min, then diluted 20-fold to 100 pM
[4] = molecular target: C-terminal truncation mutant of tetradecamer GroEL, Δ526 (E. coli) (UniProt P0A6F5); assay: cryo-EM structure; acid-urea denatured PepQ (7 μM final) titrated into GroEL or Δ526 (8 μM tetradecamers) in TKM buffer, no nucleotide, room temperature 5 min; asymmetric 3D classification and refinement

observed folding rate constant of PepQ by recovery of enzymatic activity, bound to Δ526 (200 nM) and refolded with GroES (400 nM) and ATP (2 mM) [1]: 0.106 min⁻¹
Substance: wild type E. coli PepQ (from UniProt P21165 1-443) (enzyme)

Substance: PepQ-24OG (from UniProt P21165 1-443) (enzyme)
coincident fraction (PepQ-24TMR (E. coli) [2]): 10% | co-incidence (PepQ-24TMR (E. coli) [3]): < 1% | co-incidence (most likely overlap) (PepQ-24TMR (E. coli) [3]): 0.75%

stoichiometry N [4]: 14
Substance: C-terminal truncation mutant of tetradecamer GroEL, Δ526 (from UniProt P0A6F5 2-526) (domain or fragment)
